{"source": "patent US20160053277A1", "about": "“Compositions Having Dicamba Decarboxylase Activity and Methods of Use” (PIONEER HI-BRED INTERNATIONAL, INC., priority 2013, published 2016)", "molecules": {"B1": {"name": "70 (protein, listed as Alicyclobacillus acidocaldarius)", "chain": "MAIEPNRAADVHTHFLPTEVLEFLKREPRIQVDLERRAPDKEPFLTVEGRWSFELKRMFVDFEAFASAYRQAGIGLALVSPLPQLFVYHLPAEMGAQVAEVYNDALRDVLAPHRERFRPLATLPLADPTAAARELERRMDEGFVGAIVGPGVGEALIGDEAFWPLWEVADARRAVLFLHPLLHADPRAARLMLPNLVGVPWETTLAAAHLVLSGLLDRYPGARVLLAHGGGFLPYQIGRIEQGYDVWPQVRGRLQDRPTAYLRRMFYDNVLWSDAALRCLIDVVGADRVLAGSDFPFDLSAWPPRPGADVSVLAGGSGREGRLS"}, "B2": {"name": "64 (protein, listed as Achromobacter piechaudii)", "chain": "MAIQKIDMHAHFFPPITRQEAAALDPVNAPWLRPDADGATGQIMAGEREFRPVDATLWDPALRIEQMDRHGVDVQILCATPIMFGYTYPARPAADWAARMNDLALEHCAYAPSRLKALAQVPLQDLELACQEASRARAAGHLGVQIGNHVGPRDLDDETLVQFLIHCANNDIPVLVHPWDMMTDGRMKKWMLPWLVSMPAETQLGILSLILSGAFERIPRSLKLCFAHGGGSFAYLLGRVDNAWRHRDIIRQDCPQLPSSYTDRFYTDSAVFDPRSLRLLIDVMGEDRVLLGSDYPYPLGEQEVGRLVAHAELVPEVQQKILFRNTMTFFGLQPGLQPGLQS"}, "B3": {"name": "59 (protein)", "chain": "MAPSVIDAHAHFLPGSLVTALRSRSDAPDIRTDSNGGESFGIYRTRMPYGRTYDALDVRLARMDELGVDRQILSLPGLFGIDSRPVSQALPLVRAFNDGVADLVRKHPDRFSGIAALPLADLDAAQEEYRRARGDLGLSGLILPGDTFVSVAAAERVRPLFELAATIGGLIFVHPGPLPDETGSAVDAPAPHTDSVVHRRVTVDIQNRMTEVMVTLALTDFLAPYPSVPVQVANLGGSLPFVIERMDHVYALRNPEAPPPSLSLRSLYVDAASLGPRAIALAAEVYGADRVLFGSDYPIFDDGRCLDAVRQTRLSPDARALIAGGNAARMLTQT", "modifications": "alpha proteobacterium"}, "B4": {"name": "62 (protein)", "chain": "MAVGGKNFRDVTDQVWCPKKRIEDMDREGVDIQVLSPIPVTFSYWAKPEEAESMARIQNDFIAETVLAYPDRFVGLGTVPMQDGETAIREMERCITELNLHGIEIGTNVNGKNLDDPSFIEFFRMAEKWQVPIFIHPWETLGRDRMPHHNFMYTVGMPSETALAAATLIWSGIMEKFPRLKVCFAHGGGSFPYILPRLDQGWKVWPHLRLTTHPPSYYAKKFYFDSLNYDPINLKYMIERFGHEKIFMGSDYPFLLREVDPGKVIDETASLSEEQKAAMLGGNAAEFLNIDIKKRGVAYAESTNT", "modifications": "Bacillus thuringiensis serovar pulsiensis"}, "B5": {"name": "3 (protein, listed as Lactobacillus plantarum)", "chain": "MAKLITVEEHFESAAVTAAMRQAVGNAVLPAVSPALRQYMRDNLPSPAIMQDTQHERLAFMAQYGIDMQVLSYGNSSPQNLSPEQAVPLSQLANDELAKAVVAHPDRYAGLAVLPVGDPQAAVAELNRAVTTLGLRGVLLKGNYQNKFFDEPFFLPIFEAAAALDVPVYFHPSFIPQAVTSHYFESNQWSDVVTGILSSAGYGWHMDVGIQVIRMIASGIFDKLPGLKLISGHWGELVPLFLERLDDELTTYTDLQYPFSTYYRHNVYVTPSGILSAPQLQFMLAEMGADHLMYSIDYPYKQPETSGSFLDIADLTDEQRAQIAFGTATTLFKL"}, "B6": {"name": "60 (protein, listed as Catenulispora acidiphila)", "chain": "MARGFVRTAVVPGFWDAGWRGAGQPGGMRVDVHAHLFPAAYLDLLDDFRQDGGVGTREVRALGGGDGERELRLRLAAMDAVGVDVQLLSTCPQGPYTGDPTAAVEAARCANVALAQTVAQYPERLRALAALPLPHILASVDELNRAMEQDGMLGAAVGTSILGRPLSHPDFEPLFAALNRRKGVLFVHPIGESAGSPLMQASKLDRVIGYAAEVSTAILQLFQAGLTVKYPDIRIIAPHMGGYLPFLIQRLDRHRDWYLPKDAPSAGQLMRGIAYDTANPLPAALRLTAEVVGPERLLLGTDYPFEQGPSLRDHIEYILAAGLPEAQAKMIVDVNAADFLDMRSGAEQPPV"}, "B7": {"name": "69 (protein, listed as Microbacterium testaceum)", "chain": "MATSTEGQDVTDVHAHLLMPGLHAEVERRVPDEVQAAADLELRRNGLASLQASGRMIGERFPRLTDVRARLAAMDEQGVDRQWVSPSPNHFYPWANEGLATWASGEANRLIAEHVALAPDRLVGLGVVPLQHPHLVVDALDDAVLGRGLAGVEISSFAGDVELSDERLESFWARAAELRAVVFLHPFGCSLDERLDRFYLSNTVGQPTENAVALSHLIFSGVLDRHPGLRLIAAHGGGYLPTAIGRSDRAWRVRPEARGCAHAPSTYLSKLWFDTVVHDERALRWLVEAAGADRVLLGSDFPFDMGLDDPVAFVRGAGLQDAEVSGILGGNAAELLRTRVHA"}, "B8": {"name": "68 (protein, listed as Hoeflea phototrophica)", "chain": "MAIIDAHTHTLCPAVNEKVAGTIKPDSVPYQRDMSPESKEQDHTQFPELKIMFNQVERRLADMARMGIDRQVIAPAPGQQHYWAEPKLLAEISALQNDHVAELVARAPDRFAGIGTLPMTDPDAAVAEITRATRELGLRVFQIDSRVMERELSDASLDPIYAALEAAGAGLMIHPLGFSNGERLTPFFMVNSVAQPLEELLAFNHLVFGGVLDRFPKLKVYIAHGGGFAPFYIGRFDHAWKVRPEVNRLTPSAPSTYLRRIYFDTCVYRTDHIETLVRTVGADRVMLGSDYPFDMGDTDPLGLLNACQGLSDDEKATISSKVAIDFFGLET"}, "B9": {"name": "61 (protein, listed as Gordonia amarae)", "chain": "MATGAGSGVPSPADRVIVRSPGVIDVHAHAVLPMSLGCAGAAGPEIGYREDGSPFFRVGEYVLNGVRYEGSAFMDPEVRVAAMDAAGIGLQMISPNPITYFTRLDARSATDYARAHNDAIAEAAGRHPGRLVGAAQLPMQDVPAAIAELERSVRELGLVAAYIDTDIGDRTLDAPELDDFYSAAVELDVPVFIHPSPVGQEGPPDDTRLRRFDLDLLLGFSYDETLAVAALVFGGVLERHPALDVCLSHGGGTLAFVAGRFARAVAKPRAWVPEFLVENGIESYLRRLWLDTHVHSAGSLRLLIDTVGTDRLVFGTNFAGWDADGATEVDALGDLRETTTANAAHLLRLGRA"}, "B10": {"name": "71 (protein, listed as Burkholderia dolosa)", "chain": "MARAGHRAARTRQSRPGDRTMTCSCCMSAGRRRVLGAFAALAGAPKGPRAASAAQPAAASKPTRGDATARNRHSRALLPGKASASWSATKASGSGGAFAWDDTTFTFRTPAGGLGPLPMKFIDVDARLRDMDASGVDVQALSLSVPMAYWGDRPFNAKLARAWNTAASRVHVRAPDRFVVLATLPMLDATDAIDELERASELPGVRGVYMGTNIDNRDLDDPRFAPVFARIEQLGLPVFLHPQQTVGGARLGDFYLSNLLGNPFDTAIAASHLILGGVLDRHPALHFTLPHAGGALPILVGRLDAGWTVRAETRRLAHQPSGYLRRFSYDTVSHSGPVLNFLIENVGIDRLVLGSDYCFDMGYEQPVRFLDRLDLTPDERAMVIGGNAGRLLRI"}}}
{"assay": "Saturation mutagenesis of SEQ ID NO:109: dicamba decarboxylation activity of point mutants (carbon dioxide released)", "details": "decarboxylation activity (carbon dioxide released) of point mutant compared with unmutated backbone protein; backbone SEQ ID NO: 109"}
{"molecule": "B1", "Fold Activity": 1.7}
{"molecule": "B2", "Fold Activity": 1.8}
{"molecule": "B3", "Fold Activity": 0.9}
{"molecule": "B4", "Fold Activity": 1}
{"molecule": "B5", "Fold Activity": 0.9}
{"molecule": "B6", "Fold Activity": 1.6}
{"molecule": "B7", "Fold Activity": 1.3}
{"molecule": "B8", "Fold Activity": 1.3}
{"molecule": "B9", "Fold Activity": 2.4}
{"molecule": "B10", "Fold Activity": 1.5}
{"assay": "14C assay with IPTG-induced recombinant E. coli cells: 14CO2 captured from [14C]-carboxyl-labeled dicamba", "details": "dicamba decarboxylation activity of the protein of the given SEQ ID NO; High / Low / No"}
{"molecule": "B1", "Enzymatic Detection level": "Low"}
{"molecule": "B2", "Enzymatic Detection level": "Low"}
{"molecule": "B3", "Enzymatic Detection level": "No"}
{"molecule": "B4", "Enzymatic Detection level": "No"}
{"molecule": "B5", "Enzymatic Detection level": "Low"}
{"molecule": "B6", "Enzymatic Detection level": "No"}
{"molecule": "B7", "Enzymatic Detection level": "No"}
{"molecule": "B8", "Enzymatic Detection level": "No"}
{"molecule": "B9", "Enzymatic Detection level": "No"}
{"molecule": "B10", "Enzymatic Detection level": "Low"}
{"assay": "14C assay with IPTG-induced recombinant E. coli cells: 14CO2 captured from [14C]-carboxyl-labeled dicamba", "details": "induced recombinant E. coli cells, [14C]-carboxyl-labeled dicamba, 14CO2 capture"}
{"molecule": "B1", "Dicamba Decarboxylase Activity": "Low"}
{"molecule": "B2", "Dicamba Decarboxylase Activity": "Low"}
{"molecule": "B3", "Dicamba Decarboxylase Activity": "No"}
{"molecule": "B4", "Dicamba Decarboxylase Activity": "No"}
{"molecule": "B5", "Dicamba Decarboxylase Activity": "Low"}
{"molecule": "B6", "Dicamba Decarboxylase Activity": "No"}
{"molecule": "B7", "Dicamba Decarboxylase Activity": "No"}
{"molecule": "B8", "Dicamba Decarboxylase Activity": "No"}
{"molecule": "B9", "Dicamba Decarboxylase Activity": "No"}
{"molecule": "B10", "Dicamba Decarboxylase Activity": "Low"}
